Reference: article PMC12246617, “Cryo-EM structures reveal the PP2A–B55α and Eya3 interaction that can be disrupted by a peptide inhibitor” (The Journal of Biological Chemistry, 2025)

T1: FLAG-hEya3 (human Eya3, full length) (human, UniProt Q99504 1-573)
T1 construct: Eya3, human, full length; cloned as FLAG-hEya3 in pCAG; only residues 65-86 are modelled in the structure; also called full-length Eya3; FLAG-Eya3
T1 sequence (looked up): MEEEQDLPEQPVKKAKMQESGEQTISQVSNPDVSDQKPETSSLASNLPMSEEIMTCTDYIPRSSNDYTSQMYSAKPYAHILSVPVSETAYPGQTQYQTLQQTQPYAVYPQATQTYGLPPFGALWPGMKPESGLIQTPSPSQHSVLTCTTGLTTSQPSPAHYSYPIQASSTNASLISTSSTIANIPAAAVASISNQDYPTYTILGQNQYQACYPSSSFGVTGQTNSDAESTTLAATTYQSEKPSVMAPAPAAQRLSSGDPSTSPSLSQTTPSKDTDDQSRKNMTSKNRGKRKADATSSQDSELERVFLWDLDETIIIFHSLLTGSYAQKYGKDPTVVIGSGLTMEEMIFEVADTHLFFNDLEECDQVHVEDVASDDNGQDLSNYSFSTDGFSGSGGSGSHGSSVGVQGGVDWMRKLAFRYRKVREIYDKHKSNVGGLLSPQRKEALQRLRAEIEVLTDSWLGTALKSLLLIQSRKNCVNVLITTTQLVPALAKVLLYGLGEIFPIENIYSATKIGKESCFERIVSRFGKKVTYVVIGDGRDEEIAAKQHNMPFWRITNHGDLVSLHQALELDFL

B1: FLAG-hB55 (B55α subunit of the PP2A–B55 holoenzyme purified from HEK293 FreeStyle cells) (natural protein, human)
chain: AGAGGGNDIQWCFSQVKGAVDDDVAEADIISTVEFNHSGELLATGDKGGRVVIFQQEQENKIQSHSRGEYNVYSTFQSHEPEFDYLKSLEIEEKINKIRWLPQKNAAQFLLSTNDKTIKLWKISERDKRPEGYNLKEEDGRYRDPTTVTTLRVPVFRPMDLMVEASPRRIFANAHTYHINSISINSDYETYLSADDLRINLWHLEITDRSFNIVDIKPANMEELTEVITAAEFHPNSCNTFVYSSSKGTIRLCDMRASALCDRHSKLFEEPEDPSNRSFFSEIISSISDVKFSHSGRYMMTRDYLSVKIWDLNMENRPVETYQVHEYLRSKLCSLYENDCIFDKFECCWNGSDSVVMTGSYNNFFRMFDRNTKRDITLEASRENNKPRTVLKPRKVCASGKRKKDEISVDSLDFNKKILHTAWHPKENIIAVATTNNLYIFQDKVN
notes: PP2A regulatory B subunit B55α, human; FLAG-hB55 in pCAG; The same chain as the first chain of m7, written alone for the contacts seen in the structures; also called FLAG-B55; B55 subunit
B2: His-hB55 (human PP2A regulatory subunit B55α) (natural protein, UniProt P63151 1-447, looked up)
chain: MAGAGGGNDIQWCFSQVKGAVDDDVAEADIISTVEFNHSGELLATGDKGGRVVIFQQEQENKIQSHSRGEYNVYSTFQSHEPEFDYLKSLEIEEKINKIRWLPQKNAAQFLLSTNDKTIKLWKISERDKRPEGYNLKEEDGRYRDPTTVTTLRVPVFRPMDLMVEASPRRIFANAHTYHINSISINSDYETYLSADDLRINLWHLEITDRSFNIVDIKPANMEELTEVITAAEFHPNSCNTFVYSSSKGTIRLCDMRASALCDRHSKLFEEPEDPSNRSFFSEIISSISDVKFSHSGRYMMTRDYLSVKIWDLNMENRPVETYQVHEYLRSKLCSLYENDCIFDKFECCWNGSDSVVMTGSYNNFFRMFDRNTKRDITLEASRENNKPRTVLKPRKVCASGKRKKDEISVDSLDFNKKILHTAWHPKENIIAVATTNNLYIFQDKVN
notes: PP2A regulatory B subunit B55α, human; cloned as His-hB55 in pFASTbac; Labelled on the His tag with RED-Tris-NTA dye for MST; also called His-B55; His-B55α; source: Hi5 insect cells, purified (nickel resin)

Tests used:
[1] = biological target: T1, FLAG-hEya3 (human Eya3, full length); experiment: cryo-EM structure; PP2A–B55 + Eya3: 10 μM purified PP2A–B55 incubated with 15 μM full-length Eya3; 0.1% CHAPSO added before vitrification; 3.7 Å; details: both partners purified
[2] = biological target: T1, FLAG-hEya3 (human Eya3, full length); experiment: mass photometry; proteins combined at a molar ratio of 1.5:1 in 20 mM Tris pH 8, 250 mM NaCl, 1 mM MnCl2, 0.5 mM TCEP, on ice, in the presence or absence of 25 μM B55i peptide; diluted to 100 nM before reading (Refeyn TwoMP); details: both partners purified

Binder | binding result [1] | binding result [2]
B1 | binds | 
B2 |  | binds
